In patent US20240287489A1, “CHITINOLYTIC ENZYME-BASED PLANT PROTECTION AGENTS” (GLOBACHEM NV, priority 2021, published 2024):
“Also recorded” adds a separate entry of the source.

B1: Chitinase 2: chitinolytic enzyme from P. orarium, SEQ ID NO: 2, recombinant with PelB signal peptide and 6×His tag (protein, listed as Photobacterium orarium)
chain: MATANYNPDGVYSAGEQVIYQGATYQALRSTENEAPDTYLGDAWQQVNAQNVTSSTTPTYPAYQSSAVYVGGDHVSYNSQIYKAKWWTQGEAPDATPGTGVWEWVSADNNPDPGPGPDPDPTPEPTPANGIIGQNPDGSYIMSKTYLDAREAELTSSPEFAAVLASISTRDNAVVEAVVPGLSTNPDNVKRVEALISEQKWDALFPERNVVYTYSNFLKAVAKFKGFCATYTDERAAQSDAICAKSLAVMFAHFTQETGAHNPHSPYEEWRQGLFFVREAGCSEEASSCGYNSECAASNWQTEQWPCGTNPDGSYVKYFGRGAKQLSYHYNYGPFSDFIFNDVNVLLQDPDRVADSWLNLASAVFFFVYPQPPKPSMLHVIDGTWQPTAADIAEKRVPGFGVTTMIINGGIECTLDTEKPQSVNRIKYYRGHAAALGVAIPADEQLGCAGMKAFKKTGDSTFGLYWENDWSYYPDNPGGSSFACRIESGYQTAHTTLKKGDYAKCIQKYYGVTIE
modifications: PelB signal peptide; 6xHis tag; Chitinase 2
B2: Chitinase 5: chitinolytic enzyme from P. orarium, SEQ ID NO: 5, recombinant with PelB signal peptide and 6×His tag (protein, listed as Photobacterium orarium)
chain: MAMGWSQININGVQKWEEAYSLNVDAANEIITIGAADTAGALYASQSLLQLVDGNKVPEVQITDAPRFAYRGFSVDAVRNFRTKDAIIQLLDQMAAFKLNKLHLRLADDEGWRIEIAGLPELTDVGATRCHDPEEKACILPFLGAGPDGSPESNGYYTATDYQDILSHAAALNIEVVPEIDIPGHAHAAIKAMEARYDHYAAQGNMAEANKYLLTDFNDTTQYLSVQMFTDNAINVCMESSYNFVDAVVSGLVSLHQGVQPLKTFHFGGDEIAGAWINSPACQDFIANNTDGVHSVSDLSRYFVERISVITANYGLDMAGWEDGLMHDGQVYPRSQMANNQLWGNAWQNIWEWGVADRAYNLANNDYKVVYNHATHLYFDHPYEPDPNERGYYWAPRFTDTRKTFGFMPDDVFANADFTRAGAPITKAEVVASAGVKKLLKPENVLGLQGSLWAEAVRTEDQFEGMIFPRVLGLAERAWHTATWEANDNAGIALDETGRNADYNHFANLLGQKVLPKLEQAGIAFNLPVPGGVIENGVLQANSTFPGLTIEYSTDQGTSWQSYDHLNPPAVAAGVQLRTVSGQRTSRVTTVNIE
modifications: PelB signal peptide; 6xHis tag; Chitinase 5

Legend:
[1] = Reducing end assay, specific chitinase activity of expression and purification fractions; format: biochemical; details: chitin powder, 16 h at 30° C.
Experimental: Integrity and correctness of the constructs was confirmed by colony PCR and Sanger-sequencing. All constructs were transformed into E. coli BL21 and expressed recombinantly. Expression levels of the target enzymes were determined densitometrically after immunoblot detection for cytosolic and secreted expression. Enzymatic activity was determined for all samples using a reducing end assay. […] Furthermore, it was confirmed that these enzymes are efficiently released into the culture supernatant, rendering cell lysis unnecessary for future production cycles.
A two-step purification of the selected recombinant enzymes with PelB signal peptide form the culture supernatant was carried out with an initial ammonium sulfate precipitation step and a sequential IMAC purification of the solubilized protein precipitate. Elution fractions were pooled and an SDS-PAGE and immunoblot was prepared loading the same volume for each sample (FIG. 4). Expression levels of the five chitinases varied largely, and C1 was detected in much greater abundance relative to the others. […] The observed molecular weight of all enzymes in SDS-PAGE gel and immunoblot was not in accordance with the expected theoretical molecular weight taking into account that a 6×His tag was added C-terminally to the enzymes and in general, bands for all enzymes were detected at a higher molecular weight. For all samples, unspecific bands could detected at ˜25 kDa and ˜50 kDa after IMAC purification, most likely representing host cell protein-contaminations. The amount of protein in the culture media, ammonium sulfate concentrates and the final dialyzed elution fractions was determined using the BCA assay and the same fractions were incubated with chitin powder for 16 h at 30° C. followed by the quantification of reducing sugars to measure specific chitinase activity (Table 4.2). Thereby it was confirmed that all target enzymes were successfully enriched during purification according to the specific activity.
For the determination of enzymatic activity of recombinant chitinases, a reducing end assay was carried out [Svein et al., Carbohydr Polym, 2004. 56(1): p. 35-39.]. Fractions containing chitinases were incubated with 5% (w/v) chitin powder extracted from shrimp shells (˜400.000 g/mol; Carl Roth) in MAT buffer for 2 h in an overhead shaker at ambient temperature (standard conditions). Samples were centrifuged at 13000×g for 2 min and 40 μl of the supernatant was mixed with 40 μl 0.5 M NaOH and 40 μL of a reagent containing 1.5 mg/ml 3-Methyl-2-benzothiazolinonhydrazon and 0.75 mg/ml Dithiothreitol. Samples were incubated at 80° C. for 15 min and then thoroughly mixed with 80 μl of 0.5% (w/v) FeNH4(SO4)2)×12H2O, 0.5% (w/v) sulfamic acid and 0.25 M HCl. After cooling down to room temperature, 100 μl of the samples were measured at 620 nm. A calibration curve of N-acetyl-glucosamine was constructed freshly for each measuring cycle. One unit [U] was defined as the amount of enzyme required to release 1 μmol of reducing sugars per hour.

[2] = TLC analysis of cleavage patterns with chitin standard molecules; format: biochemical; details: for hydrolysis products from chitin pentamers / hydrolysis products from chitin trimers: 4 mg/ml, 16 h, TLC; for cleavage mechanism (exo-/endo-chitinase activity): TLC of products from oligomeric or polymeric chitin substrates
Experimental: monomeric oligomers. Chitosan was degraded to a crude mixture of multiple oligomers ranging from dimers to pentamers and even larger undefined yet water-soluble fragments that migrated slightly from the starting point. Further analysis of the cleavage patterns was carried out using chitin standard molecules of DP2-DP6 and incubating them at 4 mg/ml concentration with the individual enzymes (FIG. 9).
Dimeric chitin molecules were not converted by any of the enzymes. […] All chitinases degraded chitin tetramers to dimers as a single product. […] Chitin hexamers were degraded to dimers and trimers. Although all chitinases are different in their structure and present different glycosyl hydrolase domains hydrolysis products in general were similar.
C2, 4 and 5 yielded similar product patterns when incubated with insoluble substrates. […] The presented data underline that the novel chitinases are all suited for the degradation of powdery chitin without any further harsh chemical pre-treatment.
Hydrolysis products were analyzed using 10×10 cm TLC Silica gel 60 F254 plates (Merck, Darmstadt, Germany) and a mixture of butanol:methanol:25% ammonia:H2O (5:4:2:1) as mobile phase. A total sample volume of 0.5 μl was applied in 0.25 μl spots. Chitin standard sugars (Megazyme, Chicago, USA) (5 mg/ml) were applied to the plate (0.5 μL in 0.25 μL spots) as size standard for the determination of the DP. After separation, the plate was air-dried and the developing solution (200 ml Acetone, 30 ml phosphoric acid (85%), 4 ml aniline, 4 g diphenylamine) was sprayed on the plate followed by spot visualization at 300° C. using a heat gun.

Septoria tritici = assay: Minimum inhibitory concentration (MIC) test on fungal pathogens; format: cell-based; parameters: key: xx = no growth/strong inhibition; x = small inhibition; details: start concentration 100 μg/ml
Gibberella zeae = format: cell-based; parameters: key: xx = no growth/strong inhibition; x = small inhibition; details: start concentration 100 μg/ml
Fusarium oxysporum = assay: Minimum inhibitory concentration (MIC) test on fungal pathogens; format: cell-based; parameters: key: xx = no growth/strong inhibition; x = small inhibition; details: start concentration 100 μg/ml
[3] = Dialysed elution fraction after IMAC

Molecule	Specific activity ([1]; Culture supernatant fraction) [U/mg]	Specific activity [1, 3] [U/mg]	hydrolysis products from chitin pentamers [2]	hydrolysis products from chitin trimers [2]	cleavage mechanism (exo-/endo-chitinase activity) [2]	growth inhibition of Septoria tritici in the MIC test (Septoria tritici)	growth inhibition of Gibberella zeae in the MIC test (Gibberella zeae)	growth inhibition of Fusarium oxysporum in the MIC test (Fusarium oxysporum)	cleavage mechanism (exo-/endo-chitinase activity) ([2]; listed as C5)
B1	0.04	5.36	trimers and dimers	no activity	endo-chitinase activity	xx	xx	xx	
B2	0.03	6.67	trimers and dimers	no activity		xx	xx	xx	no exochitinase activity; also recorded: endo-chitinase activity
